B1: target 2 MT 5'PFS GGU 3'PFS CGG (mixed)
RNA 1: CACCCGUGCAAAAUUGCAGGGGUCUAAAACCUUCUCCAAAUUGUUUCAUCCU
RNA 2: GGGAAUGGAUCCACAUCUACGAAUUCGGUAGGAUGAAACAAUUUGGAGAAGCGGAGAUCGGAAGAGCACACGU
B2: target 2 MT 5'PFS GGC 3'PFS UUA (mixed)
RNA 1: B1 RNA 1
RNA 2: B1 RNA 2 with U29C, C52U, G53U, G54A
B3: target 2 MT 5'PFS AAC 3'PFS ACG (mixed)
RNA 1: B1 RNA 1
RNA 2: B1 RNA 2 with G27A, G28A, U29C, C52A, G53C
B4: target 2 MT 5'PFS AAC 3'PFS UAU (mixed)
RNA 1: B1 RNA 1
RNA 2: B1 RNA 2 with G27A, G28A, U29C, C52U, G53A, G54U
B5: target 2 MT 5'PFS AAC 3'PFS UAG (mixed)
RNA 1: B1 RNA 1
RNA 2: B1 RNA 2 with G27A, G28A, U29C, C52U, G53A
B6: target 2 MT 5'PFS AAC 3'PFS UAA (mixed)
RNA 1: B1 RNA 1
RNA 2: B1 RNA 2 with G27A, G28A, U29C, C52U, G53A, G54A
B7: target 2 MT 5'PFS AUU 3'PFS CAA (mixed)
RNA 1: B1 RNA 1
RNA 2: B1 RNA 2 with G27A, G28U, G53A, G54A
B8: target 2 MT 5'PFS AAC 3'PFS UAC (mixed)
RNA 1: B1 RNA 1
RNA 2: B1 RNA 2 with G27A, G28A, U29C, C52U, G53A, G54C
B9: target 2 MT 5'PFS UAG 3'PFS CGC (mixed)
RNA 1: B1 RNA 1
RNA 2: B1 RNA 2 with G27U, G28A, U29G, G54C
B10: target 2 MT 5'PFS GAC 3'PFS ACA (mixed)
RNA 1: B1 RNA 1
RNA 2: B1 RNA 2 with G28A, U29C, C52A, G53C, G54A
B11: target 2 MT 5'PFS GGU 3'PFS CGU (mixed)
RNA 1: B1 RNA 1
RNA 2: B1 RNA 2 with G54U
B12: target 2 MT 5'PFS GGC 3'PFS UUC (mixed)
RNA 1: B1 RNA 1
RNA 2: B1 RNA 2 with U29C, C52U, G53U, G54C
B13: target 2 MT 5'PFS AAC 3'PFS ACC (mixed)
RNA 1: B1 RNA 1
RNA 2: B1 RNA 2 with G27A, G28A, U29C, C52A, G53C, G54C
B14: target 2 MT 5'PFS AAC 3'PFS ACU (mixed)
RNA 1: B1 RNA 1
RNA 2: B1 RNA 2 with G27A, G28A, U29C, C52A, G53C, G54U
B15: target 2 MT 5'PFS GAC 3'PFS ACC (mixed)
RNA 1: B1 RNA 1
RNA 2: B1 RNA 2 with G28A, U29C, C52A, G53C, G54C
B16: target 2 MT 5'PFS GAC 3'PFS ACU (mixed)
RNA 1: B1 RNA 1
RNA 2: B1 RNA 2 with G28A, U29C, C52A, G53C, G54U
B17: target 1 U8G,A14G (mixed)
RNA 1: CACCCGUGCAAAAAUGCAGGGGUCUAAAACUGAGCGGAUAACCUCUCUAUGG
RNA 2: GGGAAUGGAUCCACAUCUACGAAUUCGUACCAUAGAGGGGUUAGCCGCUCACCGAGAUCGGAAGAGCACACGU

Numbering of substitutions follows the chain as printed. Numbers in names are those of the source.

The data set addresses T1, EsCas13d, nuclease-dead (Eubacterium siraeum, UniProt B0MS50, R295A;H300A;R849A;H854A).
T1 sequence: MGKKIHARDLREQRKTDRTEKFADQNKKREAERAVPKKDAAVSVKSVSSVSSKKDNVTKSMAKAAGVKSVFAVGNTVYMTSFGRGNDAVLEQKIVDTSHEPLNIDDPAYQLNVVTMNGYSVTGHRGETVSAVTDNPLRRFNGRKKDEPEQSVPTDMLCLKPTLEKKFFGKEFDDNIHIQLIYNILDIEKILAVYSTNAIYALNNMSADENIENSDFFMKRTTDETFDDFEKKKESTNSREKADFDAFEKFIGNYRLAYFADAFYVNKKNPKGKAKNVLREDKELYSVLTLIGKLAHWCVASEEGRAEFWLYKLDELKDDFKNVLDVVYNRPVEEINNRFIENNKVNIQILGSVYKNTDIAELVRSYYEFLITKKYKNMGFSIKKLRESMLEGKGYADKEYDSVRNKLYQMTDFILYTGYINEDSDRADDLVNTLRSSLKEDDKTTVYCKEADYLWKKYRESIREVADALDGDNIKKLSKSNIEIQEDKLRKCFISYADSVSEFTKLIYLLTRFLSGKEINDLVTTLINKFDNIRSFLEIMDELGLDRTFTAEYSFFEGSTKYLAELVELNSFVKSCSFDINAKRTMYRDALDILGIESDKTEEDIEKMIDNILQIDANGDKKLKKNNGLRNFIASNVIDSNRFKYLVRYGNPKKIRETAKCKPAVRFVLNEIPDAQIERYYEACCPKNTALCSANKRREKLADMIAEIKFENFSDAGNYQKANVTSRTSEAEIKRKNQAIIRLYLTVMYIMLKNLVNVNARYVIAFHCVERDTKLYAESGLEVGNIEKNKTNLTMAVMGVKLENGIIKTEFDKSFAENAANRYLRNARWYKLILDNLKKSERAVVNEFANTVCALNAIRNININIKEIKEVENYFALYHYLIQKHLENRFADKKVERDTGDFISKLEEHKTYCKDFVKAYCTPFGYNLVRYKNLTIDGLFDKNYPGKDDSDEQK
Kind of data set: crRNA (strand 1, pre-loaded); Mg2+; 40 mM Tris-HCl pH 7.5, 150 mM NaCl, 6 mM MgCl2, 1 mM DTT, 0.1% Tween-20, 0.2 mg/ml BSA; 25 C; 10 min per concentration, then washed. The note with it: tags: His6-TwinStrep-SUMO cleaved; N-terminal SNAP kept (SNAP-Surface 488); label: 3' end held by stalled T7 RNA polymerase.
Molecule B1 had an equilibrium dissociation constant (Kd) of 15.6 ± 1.4 nM.

In turn, B2 returned a dissociation constant (Kd) of 15.2 ± 1.8 nM.

With B3, the Kd turned out to be 6.1 ± 1.6 nM.

B4: the Kd was found to be 5.4 ± 0.8 nM.

Take B5: the Kd is 6.8 ± 1.6 nM.

B6 showed a Kd of 7.4 ± 2.6 nM.

In turn, B7 showed an equilibrium dissociation constant (Kd) of 5 ± 0.6 nM.

Take B8: the Kd was determined as 5.2 ± 1.2 nM.

In turn, B9 yielded a Kd of 2.36 ± 0.26 nM.

In turn, B10 had an equilibrium dissociation constant (Kd) of 12.9 ± 2.6 nM.

On to B11, for which the Kd worked out at 22.3 ± 2.6 nM.

In turn, B12 had a Kd of 18.8 ± 2.3 nM.

In turn, B13 yielded a Kd of 7 ± 2.4 nM.

Molecule B14 showed a dissociation constant (Kd) of 9.1 ± 3.1 nM.

For B15, the Kd came out at 14.7 ± 2.3 nM.

Take B16: the Kd came to 30 ± 10 nM.

Regarding B17, binding was characterised by a dissociation constant (Kd) of 22.9 ± 1.2 nM.

The Kd is the equilibrium constant for the complex coming apart. The low end stands for tighter binding, the high end for weaker binding.

For the origin of these results see paper PMC10786891, “Massively parallel profiling of RNA-targeting CRISPR-Cas13d”.
